For three substances, bottom plateau (%), reduction of cAMP levels in forskolin-stimulated THP-1 cells and LogIC50 (pM), reduction of cAMP levels in forskolin-stimulated THP-1 cells results are on record in PMC4113718.

The experiment concerns the target CXC chemokine receptor (CXCR) 4 on THP-1 cells (human (endogenous in THP-1)) (UniProt P61073).

CXC chemokine receptor (CXCR) 4 on THP-1 cells (human (endogenous in THP-1)), sequence (P61073 whole entry): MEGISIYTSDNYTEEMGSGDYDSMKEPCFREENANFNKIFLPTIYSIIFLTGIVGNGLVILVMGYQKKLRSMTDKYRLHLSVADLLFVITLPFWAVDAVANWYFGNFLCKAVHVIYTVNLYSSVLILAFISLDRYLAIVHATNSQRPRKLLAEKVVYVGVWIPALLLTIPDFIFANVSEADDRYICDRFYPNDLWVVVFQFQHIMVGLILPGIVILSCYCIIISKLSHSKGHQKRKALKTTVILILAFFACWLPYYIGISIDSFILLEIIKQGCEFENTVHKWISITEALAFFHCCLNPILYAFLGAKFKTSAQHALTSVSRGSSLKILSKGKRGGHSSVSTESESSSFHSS

In turn, “Ub(1–74)RR (from UniProt P0CG47 1-76) (ligand)” returned a bottom plateau (%), reduction of cAMP levels in forskolin-stimulated THP-1 cells of 42.8%.
Turning to “Ub(1–74)NN (from UniProt P0CG47 1-76) (ligand)”, the LogIC50 (pM), reduction of cAMP levels in forskolin-stimulated THP-1 cells was 2.3 log(pM) and the bottom plateau (%), reduction of cAMP levels in forskolin-stimulated THP-1 cells stood at 54.1%.
In turn, “Ub(1–74)VV (from UniProt P0CG47 1-76) (ligand)” displayed a bottom plateau (%), reduction of cAMP levels in forskolin-stimulated THP-1 cells of 46.7%.
